Results on four molecules are retold here after US20230279137A1 (EVOTEC INTERNATIONAL, published 2023).

What all share (experiment): cell-based or functional assay
In assay [1] the target is T1, human IFNγ receptor on HEK-Blue IFN-γ cells (human, UniProt P15260 18-489; P38484 22-337).
T1 sequence (looked up) 1: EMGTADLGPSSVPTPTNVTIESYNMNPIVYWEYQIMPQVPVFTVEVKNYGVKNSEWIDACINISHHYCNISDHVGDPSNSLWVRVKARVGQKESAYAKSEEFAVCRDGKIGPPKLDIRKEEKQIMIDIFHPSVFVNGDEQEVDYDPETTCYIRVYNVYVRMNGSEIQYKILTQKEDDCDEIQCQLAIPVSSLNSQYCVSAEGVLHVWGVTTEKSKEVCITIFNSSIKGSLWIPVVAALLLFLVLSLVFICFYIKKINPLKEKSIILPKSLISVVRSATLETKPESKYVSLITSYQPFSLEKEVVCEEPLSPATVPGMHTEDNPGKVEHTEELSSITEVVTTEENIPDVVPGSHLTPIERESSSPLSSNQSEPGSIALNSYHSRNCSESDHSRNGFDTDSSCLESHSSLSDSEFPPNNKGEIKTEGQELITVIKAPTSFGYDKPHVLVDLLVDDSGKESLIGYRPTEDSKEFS
T1 sequence (looked up) 2: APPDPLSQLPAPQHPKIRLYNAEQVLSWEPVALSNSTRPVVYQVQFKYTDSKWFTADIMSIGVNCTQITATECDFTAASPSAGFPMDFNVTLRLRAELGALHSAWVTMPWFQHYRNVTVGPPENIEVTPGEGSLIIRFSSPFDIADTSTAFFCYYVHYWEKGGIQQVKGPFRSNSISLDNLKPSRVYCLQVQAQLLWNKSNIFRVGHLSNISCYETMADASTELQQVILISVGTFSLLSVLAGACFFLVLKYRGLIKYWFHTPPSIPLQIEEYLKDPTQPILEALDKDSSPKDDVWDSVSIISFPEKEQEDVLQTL

The target in assay [2] is T1, human IFNγ receptor on HEK-Blue IFN-γ …. This is another data set of the same source.
The target of assay [3] is human CD40 (human, UniProt P25942 21-277).
The target in assay [4] is T2, human IFNλ receptor on HEK-Blue IFN-λ cells (human, UniProt Q8IU57 21-520; Q08334 20-325).
T2 sequence (looked up) 1: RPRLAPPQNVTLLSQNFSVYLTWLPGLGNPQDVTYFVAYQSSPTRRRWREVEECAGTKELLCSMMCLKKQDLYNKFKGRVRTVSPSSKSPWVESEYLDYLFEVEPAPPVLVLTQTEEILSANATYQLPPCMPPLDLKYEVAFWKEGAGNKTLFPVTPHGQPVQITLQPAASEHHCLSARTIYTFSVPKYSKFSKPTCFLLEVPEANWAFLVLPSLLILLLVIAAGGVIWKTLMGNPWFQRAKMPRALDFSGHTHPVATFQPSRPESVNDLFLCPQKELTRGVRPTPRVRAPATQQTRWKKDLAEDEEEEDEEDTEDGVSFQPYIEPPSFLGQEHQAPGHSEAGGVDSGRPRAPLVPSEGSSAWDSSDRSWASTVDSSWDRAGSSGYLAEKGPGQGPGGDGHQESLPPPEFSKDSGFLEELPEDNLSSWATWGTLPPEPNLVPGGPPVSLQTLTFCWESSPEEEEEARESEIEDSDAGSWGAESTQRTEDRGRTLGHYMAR
T2 sequence (looked up) 2: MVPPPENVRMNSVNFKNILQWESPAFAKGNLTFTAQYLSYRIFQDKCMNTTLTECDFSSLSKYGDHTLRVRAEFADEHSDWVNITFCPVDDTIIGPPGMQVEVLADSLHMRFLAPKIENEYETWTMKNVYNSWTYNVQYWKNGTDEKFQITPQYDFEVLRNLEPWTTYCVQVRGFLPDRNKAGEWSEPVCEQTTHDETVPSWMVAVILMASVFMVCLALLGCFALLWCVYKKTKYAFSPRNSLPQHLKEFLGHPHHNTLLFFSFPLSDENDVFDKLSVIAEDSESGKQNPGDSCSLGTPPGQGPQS

Assay [5] deals with T3, human type I IFN receptor on HEK-Blue IFN-α/β cells (human, UniProt P17181 28-557; P48551 27-515).
T3 sequence (looked up) 1: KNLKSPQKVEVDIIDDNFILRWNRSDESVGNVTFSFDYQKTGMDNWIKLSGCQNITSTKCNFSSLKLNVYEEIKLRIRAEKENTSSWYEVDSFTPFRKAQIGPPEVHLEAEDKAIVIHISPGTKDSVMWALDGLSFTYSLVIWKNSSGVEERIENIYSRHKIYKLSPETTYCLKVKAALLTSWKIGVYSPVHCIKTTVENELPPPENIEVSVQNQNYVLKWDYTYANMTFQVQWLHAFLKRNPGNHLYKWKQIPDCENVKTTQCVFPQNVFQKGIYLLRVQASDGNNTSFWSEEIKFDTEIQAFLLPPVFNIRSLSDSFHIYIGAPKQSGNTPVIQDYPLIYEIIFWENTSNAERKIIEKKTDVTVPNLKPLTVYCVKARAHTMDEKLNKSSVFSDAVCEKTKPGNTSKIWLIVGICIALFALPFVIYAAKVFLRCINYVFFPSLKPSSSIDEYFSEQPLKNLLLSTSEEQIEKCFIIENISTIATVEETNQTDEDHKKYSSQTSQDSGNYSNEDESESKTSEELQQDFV
T3 sequence (looked up) 2: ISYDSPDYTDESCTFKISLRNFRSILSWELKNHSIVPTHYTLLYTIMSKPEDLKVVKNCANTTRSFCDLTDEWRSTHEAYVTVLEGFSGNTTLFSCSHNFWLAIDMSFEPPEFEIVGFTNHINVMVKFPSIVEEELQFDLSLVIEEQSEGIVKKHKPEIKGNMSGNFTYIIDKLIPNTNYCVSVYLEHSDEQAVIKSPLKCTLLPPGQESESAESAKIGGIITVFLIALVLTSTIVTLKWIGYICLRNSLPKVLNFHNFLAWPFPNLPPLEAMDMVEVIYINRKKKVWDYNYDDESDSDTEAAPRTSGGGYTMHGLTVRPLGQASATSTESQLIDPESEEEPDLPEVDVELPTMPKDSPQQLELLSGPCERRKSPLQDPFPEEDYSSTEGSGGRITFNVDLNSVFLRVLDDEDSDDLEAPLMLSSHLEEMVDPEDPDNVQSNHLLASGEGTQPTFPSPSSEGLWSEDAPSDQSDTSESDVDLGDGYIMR

Sequence of human CD40 (P25942 21-277): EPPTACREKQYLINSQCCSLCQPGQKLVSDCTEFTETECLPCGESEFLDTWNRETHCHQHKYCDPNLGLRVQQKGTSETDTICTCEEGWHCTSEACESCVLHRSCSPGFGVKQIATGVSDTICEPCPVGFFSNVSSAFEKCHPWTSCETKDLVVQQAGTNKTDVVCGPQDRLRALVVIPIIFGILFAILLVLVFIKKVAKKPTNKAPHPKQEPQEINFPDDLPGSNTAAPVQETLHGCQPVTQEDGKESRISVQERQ

B1: IFA43 (antibody, human IgG2, kappa)
heavy: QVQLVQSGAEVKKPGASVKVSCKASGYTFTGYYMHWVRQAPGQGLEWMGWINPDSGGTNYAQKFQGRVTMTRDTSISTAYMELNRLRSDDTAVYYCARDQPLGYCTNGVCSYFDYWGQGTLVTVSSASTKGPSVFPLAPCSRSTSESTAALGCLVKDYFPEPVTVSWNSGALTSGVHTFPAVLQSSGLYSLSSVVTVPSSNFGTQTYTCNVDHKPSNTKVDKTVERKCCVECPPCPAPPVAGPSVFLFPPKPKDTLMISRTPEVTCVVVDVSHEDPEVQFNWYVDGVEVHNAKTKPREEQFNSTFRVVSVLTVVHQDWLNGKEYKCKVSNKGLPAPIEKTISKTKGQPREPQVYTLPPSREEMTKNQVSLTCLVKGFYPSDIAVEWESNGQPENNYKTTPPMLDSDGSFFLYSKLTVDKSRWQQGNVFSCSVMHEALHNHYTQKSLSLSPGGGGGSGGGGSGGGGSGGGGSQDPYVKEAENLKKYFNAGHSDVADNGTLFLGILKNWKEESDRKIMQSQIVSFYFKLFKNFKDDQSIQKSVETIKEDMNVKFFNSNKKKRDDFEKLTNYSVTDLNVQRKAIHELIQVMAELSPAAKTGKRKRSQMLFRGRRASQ
light: DIQMTQSPSSVSASVGDRVTITCRASQGIYSWLAWYQQKPGKAPNLLIYTASTLQSGVPSRFSGSGSGTDFTLTISSLQPEDFATYYCQQANIFPLTFGGGTKVEIKRTVAAPSVFIFPPSDEQLKSGTASVVCLLNNFYPREAKVQWKVDNALQSGNSQESVTEQDSKDSTYSLSSTLTLSKADYEKHKVYACEVTHQGLSSPVTKSFNRGEC
B1: the “IFNγ activity EC50, reporter in HEK-Blue IFNγ cells” value in assay [1] was below 0.01 ng/mL. Also, the “IFNγ EC50 (ng/mL), reporter in HEK-Blue IFNγ cells” value in assay [2] is below 0.001 ng/mL. Moreover, the “CD40 EC50 (ng/mL), NFκB-SEAP reporter in HEK-Blue CD40L cells” value (“CD40 EC50 (ng/mL), NFκB-SEAP reporter” for short) in assay [3] was 50.8 ng/mL.

B2: IFA45 (antibody, human IgG2, kappa)
heavy: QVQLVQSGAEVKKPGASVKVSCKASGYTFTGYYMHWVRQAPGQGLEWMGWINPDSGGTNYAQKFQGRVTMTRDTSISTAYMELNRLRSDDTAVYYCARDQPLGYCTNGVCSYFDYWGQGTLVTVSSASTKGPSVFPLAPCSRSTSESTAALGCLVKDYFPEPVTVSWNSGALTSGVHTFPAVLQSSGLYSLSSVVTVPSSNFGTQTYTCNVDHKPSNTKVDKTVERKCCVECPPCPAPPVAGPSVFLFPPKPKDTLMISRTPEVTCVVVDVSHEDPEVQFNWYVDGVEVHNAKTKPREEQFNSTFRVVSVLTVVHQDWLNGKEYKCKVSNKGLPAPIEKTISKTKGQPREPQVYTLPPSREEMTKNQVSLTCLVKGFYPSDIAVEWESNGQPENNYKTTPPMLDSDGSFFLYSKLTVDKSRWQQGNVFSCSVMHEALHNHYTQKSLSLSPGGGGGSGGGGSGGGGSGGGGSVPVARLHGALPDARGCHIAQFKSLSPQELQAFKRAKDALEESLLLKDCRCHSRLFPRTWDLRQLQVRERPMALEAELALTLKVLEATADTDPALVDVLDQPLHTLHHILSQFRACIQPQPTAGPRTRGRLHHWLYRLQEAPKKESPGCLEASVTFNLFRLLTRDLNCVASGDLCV
light: DIQMTQSPSSVSASVGDRVTITCRASQGIYSWLAWYQQKPGKAPNLLIYTASTLQSGVPSRFSGSGSGTDFTLTISSLQPEDFATYYCQQANIFPLTFGGGTKVEIKRTVAAPSVFIFPPSDEQLKSGTASVVCLLNNFYPREAKVQWKVDNALQSGNSQESVTEQDSKDSTYSLSSTLTLSKADYEKHKVYACEVTHQGLSSPVTKSFNRGEC
For the molecule B2, the “IFNλ EC50 (ng/mL), reporter in HEK-Blue IFNλ cells” value in assay [4] is below 0.001 ng/mL. Also, the “CD40 EC50 (ng/mL), NFκB-SEAP reporter” value in assay [3] worked out at 25.8 ng/mL.

B3: IFA49 (antibody, human IgG2, kappa)
heavy: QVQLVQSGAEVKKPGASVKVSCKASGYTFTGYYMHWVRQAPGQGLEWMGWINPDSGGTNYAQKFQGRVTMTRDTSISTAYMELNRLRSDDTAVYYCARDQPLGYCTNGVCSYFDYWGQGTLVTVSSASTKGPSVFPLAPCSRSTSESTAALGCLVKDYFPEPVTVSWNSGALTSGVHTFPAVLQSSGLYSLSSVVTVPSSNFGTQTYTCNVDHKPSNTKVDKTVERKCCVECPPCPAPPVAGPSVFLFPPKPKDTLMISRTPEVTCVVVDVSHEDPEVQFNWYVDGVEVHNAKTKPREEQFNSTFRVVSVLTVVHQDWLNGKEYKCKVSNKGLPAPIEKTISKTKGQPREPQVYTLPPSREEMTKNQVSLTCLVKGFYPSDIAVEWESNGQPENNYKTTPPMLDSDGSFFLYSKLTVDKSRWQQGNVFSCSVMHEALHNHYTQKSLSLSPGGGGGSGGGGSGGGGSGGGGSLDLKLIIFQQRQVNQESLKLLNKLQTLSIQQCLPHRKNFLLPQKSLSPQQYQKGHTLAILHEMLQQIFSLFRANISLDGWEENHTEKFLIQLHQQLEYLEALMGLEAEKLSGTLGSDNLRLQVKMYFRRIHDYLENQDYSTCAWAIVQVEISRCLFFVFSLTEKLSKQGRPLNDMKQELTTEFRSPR
light: DIQMTQSPSSVSASVGDRVTITCRASQGIYSWLAWYQQKPGKAPNLLIYTASTLQSGVPSRFSGSGSGTDFTLTISSLQPEDFATYYCQQANIFPLTFGGGTKVEIKRTVAAPSVFIFPPSDEQLKSGTASVVCLLNNFYPREAKVQWKVDNALQSGNSQESVTEQDSKDSTYSLSSTLTLSKADYEKHKVYACEVTHQGLSSPVTKSFNRGEC
Consider B3, for which the “IFNε EC50 (ng/mL), SEAP reporter in HEK-Blue hIFN-α/β cells” value in assay [5] stood at 78.2 ng/mL. In assay [3], the “CD40 EC50 (ng/mL), NFκB-SEAP reporter” value stood at 65.8 ng/mL.

B4: IFA44 (antibody, human IgG2, kappa)
light: DIQMTQSPSSVSASVGDRVTITCRASQGIYSWLAWYQQKPGKAPNLLIYTASTLQSGVPSRFSGSGSGTDFTLTISSLQPEDFATYYCQQANIFPLTFGGGTKVEIKRTVAAPSVFIFPPSDEQLKSGTASVVCLLNNFYPREAKVQWKVDNALQSGNSQESVTEQDSKDSTYSLSSTLTLSKADYEKHKVYACEVTHQGLSSPVTKSFNRGECGGGGSGGGGSGGGGSGGGGSVPVARLHGALPDARGCHIAQFKSLSPQELQAFKRAKDALEESLLLKDCRCHSRLFPRTWDLRQLQVRERPMALEAELALTLKVLEATADTDPALVDVLDQPLHTLHHILSQFRACIQPQPTAGPRTRGRLHHWLYRLQEAPKKESPGCLEASVTFNLFRLLTRDLNCVASGDLCV
heavy: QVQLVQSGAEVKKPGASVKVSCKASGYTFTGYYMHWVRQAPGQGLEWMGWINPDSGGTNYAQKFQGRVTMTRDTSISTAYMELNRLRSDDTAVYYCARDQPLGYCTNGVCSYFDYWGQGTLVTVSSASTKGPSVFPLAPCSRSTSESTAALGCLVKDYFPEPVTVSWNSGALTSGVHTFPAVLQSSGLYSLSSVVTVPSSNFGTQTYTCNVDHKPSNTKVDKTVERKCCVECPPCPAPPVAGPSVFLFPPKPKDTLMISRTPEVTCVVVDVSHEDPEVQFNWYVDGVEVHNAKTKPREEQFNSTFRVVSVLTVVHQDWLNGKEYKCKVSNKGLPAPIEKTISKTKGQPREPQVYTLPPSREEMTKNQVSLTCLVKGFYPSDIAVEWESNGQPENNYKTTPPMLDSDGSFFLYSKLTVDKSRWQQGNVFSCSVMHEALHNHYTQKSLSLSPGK
Regarding B4, the “IFNλ EC50 (ng/mL), reporter in HEK-Blue IFNλ cells” value in assay [4] came out at 0.153 ng/mL. For the same molecule, the “CD40 EC50 (ng/mL), NFκB-SEAP reporter” value in assay [3] is 41.4 ng/mL.
